Measurements taken from patent publication US20180230213A1 (AVEO PHARMACEUTICALS, published 2018).

Experiments:
[1] = target: T1, human Notch2 expressed on the surface of CHO cells (human, UniProt Q04721 26-2471); assay: electrochemiluminescence (Meso Scale Discovery) on transfected CHO cells
T1 construct: whole, on cells
Protocol: (§1) To determine specificity of binding to cell surface Notch proteins, antibody 4F11 was tested for binding to human Notch1, human Notch2, human Notch3 and human Notch4 expressed on the surface of CHO cells using electrochemiluminescence (Meso Scale Discovery). A CHO line lacking any human Notch protein was also produced for use as a negative control. Cells were grown under standard conditions (37° C., F12+10% FBS). For binding studies, cells were washed in PBS containing calcium and magnesium, and removed from the plate by treatment with Cell Dissociation Buffer (Life Technologies) for ten minutes at 37° C.
(§2) Cells were seeded at a density of 30,000 cells per well, in hybridoma media, instandard 96-well binding plates (Meso Scale Discovery, Cat. No. L15XA-6). Cells were incubated for one hour at 37° C. Antibodies or control IgG were added at 5 μg/ml, in 50 μl hybridoma media, and incubated for one hour at 37° C. The plates were washed twice with PBS containing 3% BSA. Binding of the antibodies to cell surface was detected using 2 μg/ml of MSD anti-mouse IgG secondary antibody (Meso Scale Discovery, Cat. No. R32AC-1) for one hour at 4° C. Plates were washed twice with PBS containing 3% BSA, and 150 μl of read buffer (Meso Scale Discovery Cat. No. R92TC-1) was added. The plates were analyzed on a Sector Imager 2400 instrument (Meso Scale Discovery).

[2] = target: T2, human Notch1 expressed on the surface of CHO cells (human, UniProt P46531 19-2555); assay: as above
T2 construct: whole, on cells
Protocol: as §1, §2

[3] = target: T3, human Notch4 expressed on the surface of CHO cells (human, UniProt Q99466 24-2003); assay: as above
T3 construct: whole, on cells
Protocol: as §1, §2

rhNotch2-Fc = target: T4, rhNotch2-Fc (human, UniProt Q04721 26-530); assay: BLI (Octet QK): rhNotch2-Fc loaded on anti-human-Fc sensors, then antibody 4F11 in solution
T4 construct: also called human Notch2 protein; R&D Cat. No. 3735-NT-050
T4 sequence (looked up): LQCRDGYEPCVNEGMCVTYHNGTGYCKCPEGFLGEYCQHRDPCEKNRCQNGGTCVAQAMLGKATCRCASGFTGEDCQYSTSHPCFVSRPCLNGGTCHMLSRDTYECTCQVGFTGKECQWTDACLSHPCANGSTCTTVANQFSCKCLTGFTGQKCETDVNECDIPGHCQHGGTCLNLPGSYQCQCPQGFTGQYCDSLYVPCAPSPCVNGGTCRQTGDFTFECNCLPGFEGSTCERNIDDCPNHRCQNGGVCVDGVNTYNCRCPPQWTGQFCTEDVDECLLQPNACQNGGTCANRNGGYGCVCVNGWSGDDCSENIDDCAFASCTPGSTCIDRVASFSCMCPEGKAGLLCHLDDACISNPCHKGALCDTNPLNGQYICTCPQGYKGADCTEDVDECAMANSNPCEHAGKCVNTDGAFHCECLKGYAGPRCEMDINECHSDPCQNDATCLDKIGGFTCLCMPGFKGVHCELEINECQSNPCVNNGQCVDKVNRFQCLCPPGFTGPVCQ
Protocol: Antibody 4F11 was tested for binding to human Notch1, human Notch2, or human Notch3 proteins. Binding measurements were made by biolayer interferometry (BLI), using a FortéBio Octet® QK instrument (FortéBio, Menlo Park, Calif.). Anti-human-Fc sensors were soaked in PBS containing 1 mg/ml BSA for five minutes prior to binding of antibodies. Then the following proteins (400 nM, in PBS containing 1 mg/ml BSA) were allowed to bind to the sensors: rhNotch1-Fc (R&D Systems, Minneapolis, Minn.; Cat. No. 3647-TK-050), rhNotch2-Fc (R&D Cat. No. 3735-NT-050), rhNotch3-Fc (R&D Cat. No. 1559-NT-050), or rmNotch3-Fc (R&D Cat. No. 1308-NT-050). Notch protein bound sensors were immersed in antibody solution (50 μg/ml) to allow binding of antibody to the Notch protein. Binding was detected by shifts in the interference pattern.

[4] = target: T5, recombinant human Notch3 extracellular domain (containing EGF like domains 1-11) Fc fusion protein (human, UniProt Q9UM47 40-467); assay: SPR Biacore T100, 4F11 captured by anti-mouse IgG, rhNotch3-Fc analyte, 25 C
T5 construct: domain: EGF like domains 1-11; also called rhNotch3-Fc; rhNotch3
T5 sequence (looked up): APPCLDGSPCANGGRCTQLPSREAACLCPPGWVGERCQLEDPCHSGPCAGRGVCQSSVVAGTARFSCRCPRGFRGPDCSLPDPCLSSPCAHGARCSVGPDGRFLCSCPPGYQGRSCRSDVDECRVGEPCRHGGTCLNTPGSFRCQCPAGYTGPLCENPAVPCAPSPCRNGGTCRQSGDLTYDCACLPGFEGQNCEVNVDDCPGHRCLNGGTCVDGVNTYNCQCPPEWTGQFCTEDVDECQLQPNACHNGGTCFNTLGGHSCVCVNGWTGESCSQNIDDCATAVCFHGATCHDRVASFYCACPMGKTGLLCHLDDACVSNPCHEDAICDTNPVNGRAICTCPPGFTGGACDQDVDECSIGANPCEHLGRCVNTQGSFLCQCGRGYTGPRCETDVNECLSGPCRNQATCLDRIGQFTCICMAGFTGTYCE
Protocol: The binding affinity and kinetics of binding of antibody 4F11 to recombinant human Notch3 extracellular domain (containing EGF like domains 1-11) Fc fusion protein (rhNotch3-Fc (R&D Systems, Inc., Minneapolis, Minn.)) were measured by surface plasmon resonance using a Biacore® T100 instrument (GE Healthcare, Piscataway, N.J.).
Rabbit anti-mouse IgGs (GE Healthcare) were immobilized on carboxymethylated dextran CM4 sensor chips (GE Healthcare) by amine coupling, according to a standard protocol. Analyses were performed at 25° C. and 37° C. using PBS containing 0.05% surfactant P20 as running buffer. The antibody was captured in individual flow cells at a flow rate of 10 μl/minute. Injection time was varied for each antibody to yield an Rmax between 30 and 60 resonance units (RU). Buffer or rhNotch3-Fc diluted in running buffer was injected sequentially over a reference surface (no antibody captured) and the active surface (antibody to be tested) for 240 seconds at 60 μl/minute. The dissociation phase was monitored for up to 1500 seconds. The surface was then regenerated with two 60-second injections of 10 mM Glycine-HCl, pH 2.25, at a flow rate of 30 μl/minute. The rhNotch3-Fc concentration range tested was 100 nM to 3.125 nM (2 fold dilution).
Kinetic parameters were determined using the kinetic function of the BIAevaluation software (GE Healthcare) with double reference subtraction. Kinetic parameters for the antibody, kₐ (association rate constant), kd (dissociation rate constant) and KD (equilibrium dissociation constant) were determined.

T2 sequence (P46531 19-2555): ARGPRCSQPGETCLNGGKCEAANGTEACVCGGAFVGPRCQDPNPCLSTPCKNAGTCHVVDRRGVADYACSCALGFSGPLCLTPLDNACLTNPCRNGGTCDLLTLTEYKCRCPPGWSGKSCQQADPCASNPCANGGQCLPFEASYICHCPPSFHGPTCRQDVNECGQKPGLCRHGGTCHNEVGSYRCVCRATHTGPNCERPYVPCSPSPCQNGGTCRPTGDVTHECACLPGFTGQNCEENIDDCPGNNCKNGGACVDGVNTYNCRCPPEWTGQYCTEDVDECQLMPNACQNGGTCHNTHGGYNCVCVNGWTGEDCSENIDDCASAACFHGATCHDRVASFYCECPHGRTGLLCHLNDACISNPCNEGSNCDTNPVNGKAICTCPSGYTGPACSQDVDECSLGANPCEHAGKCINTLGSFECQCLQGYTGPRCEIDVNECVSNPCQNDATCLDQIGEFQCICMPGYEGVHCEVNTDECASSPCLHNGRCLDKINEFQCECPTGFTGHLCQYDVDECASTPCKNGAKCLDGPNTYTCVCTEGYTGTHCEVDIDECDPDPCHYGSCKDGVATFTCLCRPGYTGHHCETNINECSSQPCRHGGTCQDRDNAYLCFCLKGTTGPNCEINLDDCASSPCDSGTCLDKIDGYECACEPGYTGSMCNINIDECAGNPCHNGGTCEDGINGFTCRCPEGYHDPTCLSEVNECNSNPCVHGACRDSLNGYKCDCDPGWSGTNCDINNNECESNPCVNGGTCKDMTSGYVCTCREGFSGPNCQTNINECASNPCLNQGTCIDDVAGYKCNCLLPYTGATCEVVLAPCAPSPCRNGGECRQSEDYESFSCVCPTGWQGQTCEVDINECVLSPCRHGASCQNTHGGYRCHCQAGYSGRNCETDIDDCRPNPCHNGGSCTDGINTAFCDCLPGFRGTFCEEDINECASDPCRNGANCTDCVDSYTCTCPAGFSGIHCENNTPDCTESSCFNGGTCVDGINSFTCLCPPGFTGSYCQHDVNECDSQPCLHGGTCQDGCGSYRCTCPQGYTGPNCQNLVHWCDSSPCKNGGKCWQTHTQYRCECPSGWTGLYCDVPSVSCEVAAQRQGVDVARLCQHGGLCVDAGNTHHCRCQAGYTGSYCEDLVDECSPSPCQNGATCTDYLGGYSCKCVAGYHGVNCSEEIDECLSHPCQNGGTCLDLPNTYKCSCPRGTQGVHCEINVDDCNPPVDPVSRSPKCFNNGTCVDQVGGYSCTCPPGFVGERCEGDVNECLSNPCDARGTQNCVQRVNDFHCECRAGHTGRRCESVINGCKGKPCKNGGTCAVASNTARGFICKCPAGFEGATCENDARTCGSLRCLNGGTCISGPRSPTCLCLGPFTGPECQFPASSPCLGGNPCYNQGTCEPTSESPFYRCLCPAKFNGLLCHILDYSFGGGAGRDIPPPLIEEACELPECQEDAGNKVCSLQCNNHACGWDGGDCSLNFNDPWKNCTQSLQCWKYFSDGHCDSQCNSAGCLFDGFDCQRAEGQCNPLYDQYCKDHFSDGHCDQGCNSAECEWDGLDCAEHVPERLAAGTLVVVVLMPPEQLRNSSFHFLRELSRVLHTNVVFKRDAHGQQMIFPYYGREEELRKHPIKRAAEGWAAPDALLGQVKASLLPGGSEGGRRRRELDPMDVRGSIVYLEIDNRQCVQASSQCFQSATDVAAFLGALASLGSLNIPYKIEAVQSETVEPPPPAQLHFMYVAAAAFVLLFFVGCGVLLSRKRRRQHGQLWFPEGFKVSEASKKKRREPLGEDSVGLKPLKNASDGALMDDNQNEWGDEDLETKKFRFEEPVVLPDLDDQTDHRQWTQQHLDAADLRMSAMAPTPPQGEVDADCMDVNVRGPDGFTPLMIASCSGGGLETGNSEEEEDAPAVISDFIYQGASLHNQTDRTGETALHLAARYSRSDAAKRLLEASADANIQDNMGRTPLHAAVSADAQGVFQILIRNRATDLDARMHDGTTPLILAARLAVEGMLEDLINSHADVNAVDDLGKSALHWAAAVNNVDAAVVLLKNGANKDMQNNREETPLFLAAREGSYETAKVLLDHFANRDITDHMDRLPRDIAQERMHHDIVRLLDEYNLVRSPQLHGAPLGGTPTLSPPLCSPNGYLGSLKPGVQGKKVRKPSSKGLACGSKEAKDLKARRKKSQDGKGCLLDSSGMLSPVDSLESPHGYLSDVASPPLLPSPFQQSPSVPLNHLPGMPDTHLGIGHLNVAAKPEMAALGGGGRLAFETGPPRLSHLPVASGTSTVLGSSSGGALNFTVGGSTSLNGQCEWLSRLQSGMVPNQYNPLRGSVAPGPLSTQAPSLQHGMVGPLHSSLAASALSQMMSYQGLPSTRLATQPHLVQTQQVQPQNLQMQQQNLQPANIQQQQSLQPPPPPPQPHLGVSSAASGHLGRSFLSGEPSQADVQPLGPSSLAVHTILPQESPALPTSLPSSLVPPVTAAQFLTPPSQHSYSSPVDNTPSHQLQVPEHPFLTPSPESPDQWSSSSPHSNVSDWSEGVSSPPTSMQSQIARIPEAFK
T1 sequence (Q04721 26-2471): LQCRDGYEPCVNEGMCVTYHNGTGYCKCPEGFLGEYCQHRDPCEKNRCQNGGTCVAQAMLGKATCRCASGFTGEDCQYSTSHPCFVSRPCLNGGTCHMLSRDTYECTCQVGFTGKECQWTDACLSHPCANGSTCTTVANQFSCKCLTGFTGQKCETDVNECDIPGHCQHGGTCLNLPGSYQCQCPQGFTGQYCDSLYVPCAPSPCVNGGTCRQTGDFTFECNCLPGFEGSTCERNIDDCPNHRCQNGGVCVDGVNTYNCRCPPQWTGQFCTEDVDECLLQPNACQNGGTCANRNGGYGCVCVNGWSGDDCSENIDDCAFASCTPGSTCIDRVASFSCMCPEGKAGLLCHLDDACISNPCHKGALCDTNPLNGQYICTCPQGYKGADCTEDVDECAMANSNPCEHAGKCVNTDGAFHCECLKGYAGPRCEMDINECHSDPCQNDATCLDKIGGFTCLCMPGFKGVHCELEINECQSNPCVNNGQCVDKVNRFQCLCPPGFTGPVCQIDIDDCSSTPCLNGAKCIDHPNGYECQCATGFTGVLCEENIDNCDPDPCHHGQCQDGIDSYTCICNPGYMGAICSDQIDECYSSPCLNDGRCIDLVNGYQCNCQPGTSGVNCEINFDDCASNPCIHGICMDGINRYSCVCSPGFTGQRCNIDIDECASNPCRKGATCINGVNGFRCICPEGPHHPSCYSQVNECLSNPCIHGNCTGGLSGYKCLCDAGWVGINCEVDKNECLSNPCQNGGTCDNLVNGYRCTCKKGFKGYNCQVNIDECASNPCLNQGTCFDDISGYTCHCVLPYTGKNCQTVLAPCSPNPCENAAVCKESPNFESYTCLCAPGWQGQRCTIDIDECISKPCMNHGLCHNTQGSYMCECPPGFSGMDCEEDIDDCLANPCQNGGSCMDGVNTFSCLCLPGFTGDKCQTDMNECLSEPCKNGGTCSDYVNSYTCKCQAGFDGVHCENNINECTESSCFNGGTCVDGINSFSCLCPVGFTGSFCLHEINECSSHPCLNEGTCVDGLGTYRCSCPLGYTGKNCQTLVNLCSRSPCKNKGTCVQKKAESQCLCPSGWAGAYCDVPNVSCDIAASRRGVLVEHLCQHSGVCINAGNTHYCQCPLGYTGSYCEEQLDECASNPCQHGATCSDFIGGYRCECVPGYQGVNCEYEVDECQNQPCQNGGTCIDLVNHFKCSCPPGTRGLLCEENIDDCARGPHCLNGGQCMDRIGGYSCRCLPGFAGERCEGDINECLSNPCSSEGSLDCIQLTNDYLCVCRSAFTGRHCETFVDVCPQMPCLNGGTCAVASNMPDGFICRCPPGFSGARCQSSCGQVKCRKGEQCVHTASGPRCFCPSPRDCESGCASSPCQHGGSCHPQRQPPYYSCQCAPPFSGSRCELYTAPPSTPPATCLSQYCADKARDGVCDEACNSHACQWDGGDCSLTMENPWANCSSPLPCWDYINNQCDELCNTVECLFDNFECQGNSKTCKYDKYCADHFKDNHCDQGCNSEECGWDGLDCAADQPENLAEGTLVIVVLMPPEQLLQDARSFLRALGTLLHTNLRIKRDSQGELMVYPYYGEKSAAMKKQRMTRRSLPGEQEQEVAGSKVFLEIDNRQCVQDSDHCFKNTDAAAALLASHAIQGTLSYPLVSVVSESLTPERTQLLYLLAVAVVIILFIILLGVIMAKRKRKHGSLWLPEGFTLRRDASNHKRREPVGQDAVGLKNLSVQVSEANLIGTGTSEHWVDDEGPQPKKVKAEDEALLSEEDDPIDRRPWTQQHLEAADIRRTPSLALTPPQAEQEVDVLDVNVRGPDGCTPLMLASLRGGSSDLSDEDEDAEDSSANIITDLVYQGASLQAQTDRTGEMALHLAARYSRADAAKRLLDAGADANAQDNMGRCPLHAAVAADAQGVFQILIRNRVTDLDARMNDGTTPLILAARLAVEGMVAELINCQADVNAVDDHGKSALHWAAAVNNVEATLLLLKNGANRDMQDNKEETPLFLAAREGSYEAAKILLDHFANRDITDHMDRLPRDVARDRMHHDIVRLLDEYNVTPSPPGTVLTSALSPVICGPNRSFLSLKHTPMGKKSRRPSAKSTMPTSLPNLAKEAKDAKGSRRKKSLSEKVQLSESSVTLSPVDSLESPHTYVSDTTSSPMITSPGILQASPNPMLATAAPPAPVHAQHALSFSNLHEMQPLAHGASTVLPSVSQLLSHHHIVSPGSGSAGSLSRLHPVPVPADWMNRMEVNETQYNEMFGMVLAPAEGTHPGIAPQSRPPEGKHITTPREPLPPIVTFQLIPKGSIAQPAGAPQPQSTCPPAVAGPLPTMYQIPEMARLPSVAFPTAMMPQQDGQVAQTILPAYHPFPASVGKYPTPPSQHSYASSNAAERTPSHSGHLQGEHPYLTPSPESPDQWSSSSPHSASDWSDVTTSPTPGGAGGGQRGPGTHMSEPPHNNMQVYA

- binding result [1]: no binding (tested: 5 µg/ml)
- binding result [2]: no binding (tested: 5 µg/ml)
- binding result [3]: no binding (tested: 5 µg/ml)
- binding result (rhNotch2-Fc): no binding
- Kd [4]: 0.823 nM
- koff [4]: 4.8e-05 s⁻¹
- kon [4]: 70000 M⁻¹ s⁻¹
B1: antibody 4F11 (murine monoclonal anti-human Notch3) (antibody, mouse IgG1, kappa, V domains shown)
VH: EVQLVESGGGLVKPGGSLKLSCAASGFAFSSYDMSWVRQTPEKRLEWVAYISRGGGSTYYPDTVKGRFTISRDNAKNTLYLQMSSLKSEDTAMYYCGRHATTAYWYFDVWGAGTTVTVSS
VL: DVVMTQTPLSLPVSLGDQASISCRSSQSLVHTNGNTYLHWYLQKPGQSPKLLIYKVSNRFSGVPDRFSGSGSGTDFTLKISRVEAEDLGVYFCSQSTHVPWTFGGGTKLEIKR
notes: Mouse IgG1 kappa purified from hybridoma; also called mu4F11; murine 4F11
